System: primer annealed to an M13 template
Experiment: Extension rate assay
Assay type: biochemical
Details: for extension rate, Base Pairs/Sec: 75° C
Procedure: The extension rate of G46D F667Y Taq and G46D F667Y E681K Taq were determined using an extension rate assay. In this experiment, the enzymes were used to extend a primer annealed to an M13 template in the presence of [α-^33P]dCTP. The extension reactions were denatured and the products analyzed by denaturing agarose gel electrophoresis.
The assay was performed as previously described (Lawyer et al., 1989, J. Biol. Chem. 264:6427) including the following modifications. The assay mixture was composed so the final concentration was 50 mM Bicine pH 8.3, 25° C., 2.5 mM MgCl2, 1 mM β-mercaptoethanol, 200 μM each of dATP, dGTP and dTTP (Perkin-Elmer), 100 μM dCTP (Perkin-Elmer) containing [α-^33P]dCTP (New England Nuclear, Boston, Mass.). M13 mp18 (Perkin-Elmer) was annealed to primer DG48, (SEQ ID NO: 11), and the equivalent of 0.085 pmoles of the annealed template was added to the assay mixture for each reaction. Forty-five μl of the assay mixture with template DNA was added to each of fourteen 0.5 ml eppendorf tubes. Each tube was preincubated at 75° C. for at least 30 seconds before the start of the polymerase reaction.
Polymerization was initiated in six of the fourteen assay tubes with 5 μl of G46D F667Y Taq DNA polymerase (2.5 units) or G46D F667Y E681K Taq DNA polymerase (1.25 units). Both enzymes were prepared as in Example I and the concentration used represents a predetermined excess amount of enzyme for the amount of substrate in the assay. As a control for the level of background, the remaining negative control was initiated with enzyme dilution buffer rather than polymerase. All reaction tubes were immediately vortexed briefly and incubated at 75° C. Two of the six tubes containing G46D F667Y Taq DNA polymerase were incubated 3 minutes, two for 6 minutes and two for 10 minutes. Similarly, two of the tubes started with G46D F667Y E681K Taq DNA polymerase were incubated for 30 seconds, two for 1 minute and two for 2 minutes. The control tubes were incubated for 3 minutes. The reactions were stopped by addition of 10 μl 60 mM EDTA and stored at 0° C.
For each reaction, a 25 μl aliquot of the 60 μl reaction was diluted with 1 ml 2 mM EDTA, 50 μg/ml sheared salmon sperm DNA as a carrier. The DNA was precipitated with TCA using standard procedures and collected on GF/C filter discs (Whatman). The amount of incorporated [α-^33P]dCMP was determined for each sample.
The remaining 35 μl of each duplicated were combined and the 70 μl sample was ethanol precipitated, dried and resuspended in 50 mM NaOH, 1 mM EDTA. Aliquots were removed from these samples such that an equal number of α-^33P] counts were taken from each. These aliquots were loaded on an 0.9% alkaline agarose gel, electrophoresed, dried and autoradiographed as previously described (Maniatis et al., 1982, In Molecular Cloning: A Laboratory Manual, Cold Spring Harbor Laboratory, Cold Spring Harbor, N.Y.) Bacteriophage lambda DNA cut with restriction enzyme HindIII (BRL) and 5′ end-labeled with [^32P] was used as a molecular weight standard.
The length in base pairs of the extension product in each sample was determined by comparison of the migration distance of each sample with the distance migrated by the lambda DNA size standard. The number of base pairs in each product was divided by the number of seconds each extension reaction incubated to give the extension rate as shown below.

B1: G46D F667Y E681K Taq: thermostable Taq DNA polymerase with G46D, F667Y and E681K mutations, encoded by plasmid pLK113 (protein, UniProt P19821 1-832, looked up, variant G46D F667Y E681K)
DNA polymerase I, thermostable: MRGMLPLFEPKGRVLLVDGHHLAYRTFHALKGLTTSRGEPVQAVYDFAKSLLKALKEDGDAVIVVFDAKAPSFRHEAYGGYKAGRAPTPEDFPRQLALIKELVDLLGLARLEVPGYEADDVLASLAKKAEKEGYEVRILTADKDLYQLLSDRIHVLHPEGYLITPAWLWEKYGLRPDQWADYRALTGDESDNLPGVKGIGEKTARKLLEEWGSLEALLKNLDRLKPAIREKILAHMDDLKLSWDLAKVRTDLPLEVDFAKRREPDRERLRAFLERLEFGSLLHEFGLLESPKALEEAPWPPPEGAFVGFVLSRKEPMWADLLALAAARGGRVHRAPEPYKALRDLKEARGLLAKDLSVLALREGLGLPPGDDPMLLAYLLDPSNTTPEGVARRYGGEWTEEAGERAALSERLFANLWGRLEGEERLLWLYREVERPLSAVLAHMEATGVRLDVAYLRALSLEVAEEIARLEAEVFRLAGHPFNLNSRDQLERVLFDELGLPAIGKTEKTGKRSTSAAVLEALREAHPIVEKILQYRELTKLKSTYIDPLPDLIHPRTGRLHTRFNQTATATGRLSSSDPNLQNIPVRTPLGQRIRRAFIAEEGWLLVALDYSQIELRVLAHLSGDENLIRVFQEGRDIHTETASWMFGVPREAVDPLMRRAAKTINYGVLYGMSAHRLSQKLAIPYEEAQAFIERYFQSFPKVRAWIEKTLEEGRRRGYVETLFGRRRYVPDLEARVKSVREAAERMAFNMPVQGTAADLMKLAMVKLFPRLEEMGARMLLQVHDELVLEAPKERAEAVARLAKEVMEGVYPLAVPLEVEVGIGEDWLSAKE
Question: For B1, which “extension rate, Base Pairs/Sec” value (Time 30 sec.) is on record?
Answer: The value was 36.7 Base Pairs/Sec.

Question: And the “extension rate, Base Pairs/Sec” value (Time 1 min.)?
Answer: Its value is 41.7 Base Pairs/Sec.

Question: And the “extension rate, Base Pairs/Sec” value (Time 2 min)?
Answer: The value was 52.9 Base Pairs/Sec.

Question: What about the “extension rate (in words)” value (relative to an enzyme with the F667Y mutation alone) of the same molecule?
Answer: Its value is “significantly increased extension rate”.
